In PMC12846830 (Proceedings of the National Academy of Sciences of the …, 2026):

Target: the molecule itself
Test: single-molecule photobleaching step analysis

B1: EmrE, a multidrug transporter from Escherichia coli, with a tetracysteine tag (TC-Tag) (natural protein)
chain: MNPYIYLGGAILAEVIGTTLMKFSEGFTRLWPSVGTIICYCASFWLLAQTLAYIPTGIAYAIWSGVGIVLISLLSWGFFGQRLDLPAIIGMMLICAGVLIINLLSRSTPH
modifications: FlAsH dye covalently bound to the tetracysteine tag
stoichiometry N: 2
